{"source": "patent US7264314B2", "about": "“Adrenocorticotropic hormone analogs and related methods” (priority 2004, dated 2007)", "molecular_target": "T1, adrenal ACTH receptors such as MC-2R (explanted adrenal membrane) (Mus musculus, UniProt Q64326)", "T1 construct": "the adrenal halves were macerated or otherwise dissociated using Dounce Homogenizer to form a membrane fraction; from tissue; host or cells: membrane fraction of explanted mouse adrenal glands", "T1 sequence (Q64326 whole entry)": "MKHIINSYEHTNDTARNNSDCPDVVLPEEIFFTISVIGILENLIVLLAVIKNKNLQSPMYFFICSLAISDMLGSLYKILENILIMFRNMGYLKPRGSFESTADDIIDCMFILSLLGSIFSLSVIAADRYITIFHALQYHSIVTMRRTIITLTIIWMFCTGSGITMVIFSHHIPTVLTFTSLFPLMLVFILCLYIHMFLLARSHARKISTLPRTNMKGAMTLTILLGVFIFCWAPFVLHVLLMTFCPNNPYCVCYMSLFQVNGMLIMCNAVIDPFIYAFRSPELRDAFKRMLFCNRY", "T1 sequence (Q9D159 whole entry partner)": "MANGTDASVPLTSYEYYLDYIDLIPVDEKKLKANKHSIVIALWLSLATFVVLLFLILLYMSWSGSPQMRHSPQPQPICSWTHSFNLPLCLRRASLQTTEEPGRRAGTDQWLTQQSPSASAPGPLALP", "assay": "in vitro Serum-free Adrenal Competitive Binding Assay", "set-up": "species or system mice", "conditions": "cold peptide at 10 nM, 100 nM, 1000 nM", "from_the_text": "ACTH analog compounds that bind to adrenal membrane with a greater affinity than endogenous unmodified ACTH, and are able to displace unmodified ACTH can be identified using an in vitro Serum-free Adrenal Competitive Binding Assay (Example 3). […] A higher CPM level indicates the presence of greater amounts of the radiolabelled compound. […] Column 220 indicates the level of radio-labeled unmodified mACTH(1–24) detected after combining the explanted adrenal membrane with only the radio-labeled mACTH(1–24) for 2 hours.(no competitive binding). Columns 230, 240, and 250 show the results of competitive binding assays for binding of non-radio-labeled (“cold”) mACTH(1–24) to displace the radio-labeled mACTH(1–24) from the explanted adrenal membrane (measured in column 220) by competitive binding to receptors such as MC-2R on the adrenal membrane. […]\nACTH analogs with the ability to bind adrenal receptors with a greater affinity than compounds with known adrenal binding activity (preferably ACTH) can also be identified by performing an in vitro Adrenal Competitive Binding Assay, whereby measurement of the reduction in the amount of the radiolabelled adrenal-binding compound (e.g., ACTH) is measured at various concentrations of non-radio-labeled ACTH analog test compound in a medium containing explanted adrenal membrane. […]", "note": "No end group written: not given here.", "data": [{"substance": "N-Ser^1-Tyr-Ser-Met-Glu^5-His-Phe-Arg-Trp-Gly^10-Lys-Pro-Val-Gly-Lys^15-Arg-Ala-Ala-Trp-Val^20-Lys-Val-Tyr-Pro-Ac (SYSMEHFRWGKPVGKRAAWVKVYP; not fully specified (C-terminus); printed as N-Ser1-Tyr-Ser-Met-Glu5-His-Phe-Arg-Trp-Gly10-Lys-Pro-Val-Gly-Lys15-Arg-Ala-Ala-Trp-Val20-Lys-Val-Tyr-Pro-Ac) [AT814]", "values": [{"measurement": "displacement of radio-labeled mACTH(1–24) from explanted adrenal membrane (CPM)", "result": "displacement of the radio-labeled mACTH(1–24)"}]}]}
